Experimental findings from US20220135701A1 (Genentech, published 2022) are described below.

Where two headings read alike, the source gives them in different places.

Test [1] addresses T1, human MerTK (human, UniProt Q12866 26-499).
T1 construct: also called HuMER
T1 sequence: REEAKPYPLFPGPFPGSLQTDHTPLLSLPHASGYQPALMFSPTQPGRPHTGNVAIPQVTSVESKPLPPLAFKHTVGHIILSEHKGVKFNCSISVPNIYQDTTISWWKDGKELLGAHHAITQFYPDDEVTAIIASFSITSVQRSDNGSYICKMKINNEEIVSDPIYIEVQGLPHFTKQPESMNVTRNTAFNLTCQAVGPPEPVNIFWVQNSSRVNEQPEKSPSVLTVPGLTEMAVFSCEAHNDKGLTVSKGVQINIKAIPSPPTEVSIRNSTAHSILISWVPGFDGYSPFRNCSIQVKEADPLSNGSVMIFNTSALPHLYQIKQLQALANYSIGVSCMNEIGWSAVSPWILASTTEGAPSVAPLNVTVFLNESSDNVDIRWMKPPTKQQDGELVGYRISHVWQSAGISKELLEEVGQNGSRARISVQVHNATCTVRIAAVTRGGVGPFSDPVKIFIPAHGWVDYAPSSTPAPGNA
The experiment in a line: SPR BIAcore T200, Ab captured, 25C. The procedure:
(§1) All binding affinity determinations were obtained using Surface Plasmon Resonance (SPR) measurements from a BIAcore™-T200 instrument. Briefly, each rabbit or humanized antibody was captured to achieve approximately 100 RU (Response Units). Then, 3-fold serial dilutions of MerTK from various species (0.4 nM to 100 nM) diluted in HBS-EP buffer (0.01M HEPES pH 7.4, 0.15M NaCl, 3 mM EDTA and 0.05% v/v surfactant P20) was injected into the BIAcore™-T200 instrument at 25° C. or 37° C. with a flow rate of 30 μl/min. Association rates (kₒₙ) and dissociation rates (koff) were calculated using a simple one-to-one Langmuir binding model (BIAcore T200 evaluation software version 2.0). The equilibrium dissociation constant (KD) was calculated as the ratio koff/kₒₙ.

Test [2] has as its target T2, cynomolgus monkey MerTK (cynomolgus monkey, UniProt A0A2K5V1H9 32-505).
T2 construct: Soluble analyte in SPR; also called Cyno MerTK
T2 sequence: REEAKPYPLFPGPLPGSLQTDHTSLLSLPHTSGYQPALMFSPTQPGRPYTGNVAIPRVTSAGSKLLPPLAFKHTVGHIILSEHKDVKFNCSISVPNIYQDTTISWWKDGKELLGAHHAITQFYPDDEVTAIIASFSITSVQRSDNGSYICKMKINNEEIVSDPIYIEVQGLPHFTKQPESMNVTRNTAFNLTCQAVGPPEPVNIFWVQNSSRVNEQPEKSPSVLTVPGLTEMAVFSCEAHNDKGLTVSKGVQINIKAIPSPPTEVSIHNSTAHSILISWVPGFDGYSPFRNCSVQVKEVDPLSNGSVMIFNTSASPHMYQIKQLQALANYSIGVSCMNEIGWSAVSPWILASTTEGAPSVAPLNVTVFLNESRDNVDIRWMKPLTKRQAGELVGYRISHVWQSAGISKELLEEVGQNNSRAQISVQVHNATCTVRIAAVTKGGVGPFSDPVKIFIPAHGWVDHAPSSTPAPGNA
As to the kind of experiment: SPR BIAcore T200, Ab captured, 25C. The procedure: as §1

Test [3] concerns the target T3, mouse MerTK (mouse, UniProt Q60805 23-496).
T3 construct: also called MuMER
T3 sequence (looked up): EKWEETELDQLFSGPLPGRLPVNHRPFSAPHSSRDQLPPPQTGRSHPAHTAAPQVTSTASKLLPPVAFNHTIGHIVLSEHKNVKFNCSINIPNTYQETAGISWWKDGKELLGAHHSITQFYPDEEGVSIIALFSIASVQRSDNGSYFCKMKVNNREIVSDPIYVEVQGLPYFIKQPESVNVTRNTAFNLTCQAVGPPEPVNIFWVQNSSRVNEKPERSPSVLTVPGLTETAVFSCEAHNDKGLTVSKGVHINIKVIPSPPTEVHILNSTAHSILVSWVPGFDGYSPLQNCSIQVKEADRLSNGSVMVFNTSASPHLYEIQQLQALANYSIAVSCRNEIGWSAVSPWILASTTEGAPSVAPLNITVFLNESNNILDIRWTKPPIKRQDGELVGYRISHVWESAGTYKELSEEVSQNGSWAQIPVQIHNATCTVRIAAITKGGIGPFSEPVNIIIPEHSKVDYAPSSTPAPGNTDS
As to the kind of experiment: SPR BIAcore T200, Ab captured, 25C. The procedure: as §1

Test [4] addresses T4, MuMER.Ig1&2 (A70-P279) (mouse, UniProt Q60805 70-279).
T4 construct: range 70-279; also called mouse MerTK Ig-like 1&2 domains
T4 sequence (looked up): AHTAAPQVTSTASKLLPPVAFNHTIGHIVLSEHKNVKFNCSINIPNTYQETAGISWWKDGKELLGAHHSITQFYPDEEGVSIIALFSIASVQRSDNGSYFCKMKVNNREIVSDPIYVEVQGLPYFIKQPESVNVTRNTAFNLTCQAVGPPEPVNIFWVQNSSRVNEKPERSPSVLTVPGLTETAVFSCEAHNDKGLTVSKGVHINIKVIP
The experiment in a line: SPR BIAcore T200, Ab captured, 25C. Here is the method:
(§2) Binding affinity determinations were obtained using Surface Plasmon Resonance (SRP) measurements from a BIAcore™-T200 instrument. Briefly, each rabbit antibody was captured to achieve approximately 100 RU (Response Units). Then, 3-fold serial dilutions of the various MerTK domains (0.4 nM to 100 nM) diluted in HBS-EP buffer (0.01M HEPES pH 7.4, 0.15M NaCl, 3 mM EDTA and 0.05% v/v surfactant P20) was injected into the BIAcore™-T200 instrument at 25° C. or 37° C. with a flow rate of 30 μl/min. Association rates (kₒₙ) and dissociation rates (koff) were calculated using a simple one-to-one Langmuir binding model (BIAcore T200 evaluation software version 2.0). The equilibrium dissociation constant (KD) was calculated as the ratio koff/kₒₙ.
(§3) Antibody epitope determination was assessed by BIAcore analysis for rabbit antibodies binding against both the human and mouse MerTK extracellular domain (HuMER R26-A499 and MuMER E23-S496), Ig1&2 domain, Ig1-only domain, and Ig2-only domain (TABLE 18). Human MerTK and its domains are shown in light gray, while mouse MerTK and its domains are shown in dark gray.

For test [5], the target named is T5, HuMER (R26-A499) (human, UniProt Q12866 26-499).
T5 construct: Extracellular domain with both Ig-like and both fibronectin-like domains; also called human MerTK extracellular domain
T5 sequence: T1 sequence
As to the kind of experiment: SPR BIAcore T200, Ab captured, 25C. Here is the method: as §2, §3

Test [6] addresses T6, HuMER.Ig1 (G76-G195) (human, UniProt Q12866 76-195).
T6 construct: also called human MerTK Ig-like 1 domain
T6 sequence: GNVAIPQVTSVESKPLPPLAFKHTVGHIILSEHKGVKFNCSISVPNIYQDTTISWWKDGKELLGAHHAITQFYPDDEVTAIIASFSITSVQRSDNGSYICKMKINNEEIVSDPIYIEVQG
The experiment in a line: SPR BIAcore T200, Ab captured, 25C. The procedure: as §2, §3

Test [7] deals with T7, MuMER (E23-S496) (mouse, UniProt Q60805 23-496).
T7 construct: range 23-496; also called mouse MerTK extracellular domain
T7 sequence (looked up): T3 sequence (looked up)
The experiment in a line: SPR BIAcore T200, Ab captured, 25C. Here is the method:
as §2, §3

The target of test [8] is T1, human MerTK. As to the kind of experiment: SPR BIAcore T200, Ab captured, 37C. The procedure:
as §2, with “Each humanized mutation variant was subject to BIAcore analysis to determine the important rabbit residues for binding and stability. Binding” for “Binding”, “humanized mutation variant” for “rabbit”, “human” for “the various”, “MerTK” for “MerTK domains”, “at” for “at 25° C. or”

For test [9], the target named is T1, human MerTK. As to the kind of experiment: SPR BIAcore T200, Ab captured, 37C. Here is the method: as §1
This is another data set of the same source.

In test [10] the target is T2, cynomolgus monkey MerTK. The experiment in a line: SPR BIAcore T200, Ab captured, 37C. The procedure:
as §1

Test [11] has as its target T8, rat MerTK (rat, UniProt P57097 23-496, limits assumed).
T8 construct: Soluble analyte in SPR
T8 sequence (looked up): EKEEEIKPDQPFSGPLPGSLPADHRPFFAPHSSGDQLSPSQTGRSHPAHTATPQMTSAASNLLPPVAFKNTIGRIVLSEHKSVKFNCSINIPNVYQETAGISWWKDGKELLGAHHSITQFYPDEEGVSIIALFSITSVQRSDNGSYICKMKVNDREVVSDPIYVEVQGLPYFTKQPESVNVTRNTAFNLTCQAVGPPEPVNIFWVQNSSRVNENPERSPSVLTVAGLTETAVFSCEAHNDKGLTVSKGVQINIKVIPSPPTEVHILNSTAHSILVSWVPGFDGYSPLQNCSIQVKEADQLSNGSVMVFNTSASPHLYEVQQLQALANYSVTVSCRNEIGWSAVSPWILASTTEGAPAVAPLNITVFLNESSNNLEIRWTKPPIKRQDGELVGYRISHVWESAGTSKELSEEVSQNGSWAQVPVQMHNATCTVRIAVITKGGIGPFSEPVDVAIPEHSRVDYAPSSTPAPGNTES
The experiment in a line: SPR BIAcore T200, Ab captured, 37C. The procedure: as §1

In test [12] the target is T3, mouse MerTK. The experiment in a line: SPR BIAcore T200, Ab captured, 37C. Here is the method:
as §1

Test [13] has as its target T1, human MerTK. As to the kind of experiment: SPR BIAcore T200, Ab captured, 37C. The procedure:
(§4) Each rabbit and humanized antibody was subjected to a binding assay to determine its affinity to MerTK derived from various species.
as §1
This is another data set of the same source.

Test [14] has as its target T2, cynomolgus monkey MerTK. As to the kind of experiment: SPR BIAcore T200, Ab captured, 37C. The procedure: as §4, §1
This is another data set of the same source.

Test [15] has as its target T8, rat MerTK. The experiment in a line: SPR BIAcore T200, Ab captured, 37C. The procedure:
as §4, §1
This is another data set of the same source.

The target of test [16] is T3, mouse MerTK. The experiment in a line: SPR BIAcore T200, Ab captured, 37C. The procedure:
as §4, §1
This is another data set of the same source.

B1: Rbt11G11 (antibody, V domains shown)
VH: QELVESGGGLVQAGESLKLSCKASGIDFSSYGISWVRQAPGKGLEWIAYIYPGFGITNYAHSVKGRFTISSDNAQNTVFLQMPSLTASDTATYFCARDLDYTGGVVGYAYVTYYFTLWGPGTLVTVSS
VL: DPVLTQTPSSVEAAVGGTVTIKCQASESISSRLAWYQQKPGQPPKLLIYSASTLASGVSSRFKGSGSGTEFTLTISDLECADAATYYCQTYYGGSTTGWYVFGGGTEVVVK
notes: Recombinant rabbit monoclonal antibody, Expi293, protein A purified
As to B1, the Kd is 31.3 nM in test [1]; 14.3 nM in test [2]; 4.1 nM in test [3]; 3.4 nM in test [4]; 31.3 nM in test [5]; 39.8 nM in [6]. Also, the Kd in [7] came out at 4.1 nM.

B2: h9E3.FN.v1 (antibody, V domains shown)
VH: EQQLVESGGGLIQPGGSLRLSCAVSGFSLSSNAMSWVRQAPGKGLEWIGIISSSGSTYSASWAKGRFTISKDSSKNTMYLQMNSLRAEDTAVYFCARVGFFVGYGAYDYGIIHRLDLWGQGTLVTVSS
VL: DAQLTQSPSTLSASVGDRVTITCQSSKSIYNNNWLSWYQQKPGKPPKLLIYDASDLASGVPSRFSGSGSGTEFTLTISSLQPDDFATYYCAGGYSGDSDYAFGGGTKVEIK
notes: also called h9E3.FN.V1 (Parent); 9E3.FN Humanized mAb V1
For B2, the Kd in test [8] turned out to be 12.2 nM; in test [9] it was 10.6 nM; in test [10], 4.5 nM; in [11], 3.7 nM; in [12] it was 1.5 nM; in [13], 11.2 nM. Moreover, the dissociation constant Kd was determined as 4.8 nM in test [14], 3.8 nM in [15] and 1.4 nM in [16].

B3: h10F7.v1 (antibody, V domains shown)
VH: EQQLVESGGGLVQPGGSLRLSCAVSGFSLSGYAMSWVRQAPGKGLEYIGVISSSGSSYYPSWAKGRFTISKDSSKNTVYLQMGSLRAEDMAVYFCARVQFYVGYAVYGYGIIDRLDLWGQGTLVTVSS
VL: DAVLTQSPDSLAVSLGERATINCQSSKSVYNNNWLSWYQQKPGQPPKLLIYRASTLESGVPDRFSGSGSGTDFTLTISSLQAEDVAVYFCAGGYSSSSSANAFGGGTKVEIK
notes: also called h10F7.V1 (Parent); 10F7 Humanized mAb V1
For B3, the Kd in [8] worked out at 7.3 nM; in test [9] it was 7.1 nM; in [10], 3.1 nM; in [11], 3.6 nM; in test [12], 1.5 nM; in [13], 6.7 nM. For the same molecule, the results for the Kd in test [14], in [15] and in test [16] were 3 nM, 4.1 nM and 1.5 nM, respectively.
